Earlier results, collected in paper PMC4741374.

Experiments:
GM-CSFR (Homo sapiens) = GM-CSFR (Homo sapiens) (UniProt P15509)
G-CSFR (Homo sapiens) = G-CSFR (Homo sapiens) (UniProt Q99062)
Sequence of UniProt Q99062 (Q99062 25-627): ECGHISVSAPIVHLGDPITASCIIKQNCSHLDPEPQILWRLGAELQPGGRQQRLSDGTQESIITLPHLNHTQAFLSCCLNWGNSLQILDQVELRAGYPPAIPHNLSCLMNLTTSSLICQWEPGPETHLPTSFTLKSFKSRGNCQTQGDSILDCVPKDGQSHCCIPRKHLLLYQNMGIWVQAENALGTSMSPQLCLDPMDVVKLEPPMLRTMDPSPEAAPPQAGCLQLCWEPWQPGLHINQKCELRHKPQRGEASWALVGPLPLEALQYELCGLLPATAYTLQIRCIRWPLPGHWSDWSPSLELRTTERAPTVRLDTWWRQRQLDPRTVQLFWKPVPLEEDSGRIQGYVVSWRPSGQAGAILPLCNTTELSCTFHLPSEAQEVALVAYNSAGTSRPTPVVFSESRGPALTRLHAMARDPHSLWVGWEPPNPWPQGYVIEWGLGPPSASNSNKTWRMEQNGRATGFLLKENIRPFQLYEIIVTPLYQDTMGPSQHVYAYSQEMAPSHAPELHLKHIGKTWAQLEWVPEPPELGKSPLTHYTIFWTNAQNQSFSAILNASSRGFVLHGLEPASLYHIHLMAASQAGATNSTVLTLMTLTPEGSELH

Sequence of UniProt P15509 (P15509 23-320, chain 1 of 2): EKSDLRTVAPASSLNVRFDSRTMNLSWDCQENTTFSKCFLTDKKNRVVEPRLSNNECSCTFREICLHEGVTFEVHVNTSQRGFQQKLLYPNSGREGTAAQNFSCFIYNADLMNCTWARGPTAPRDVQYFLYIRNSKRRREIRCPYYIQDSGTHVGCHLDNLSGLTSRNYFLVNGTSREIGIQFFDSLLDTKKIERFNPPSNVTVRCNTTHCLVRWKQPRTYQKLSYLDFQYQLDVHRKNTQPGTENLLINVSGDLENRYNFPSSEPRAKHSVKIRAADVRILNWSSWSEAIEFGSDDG
Sequence of UniProt P15509 (P32927 17-443, chain 2 of 2, further chain): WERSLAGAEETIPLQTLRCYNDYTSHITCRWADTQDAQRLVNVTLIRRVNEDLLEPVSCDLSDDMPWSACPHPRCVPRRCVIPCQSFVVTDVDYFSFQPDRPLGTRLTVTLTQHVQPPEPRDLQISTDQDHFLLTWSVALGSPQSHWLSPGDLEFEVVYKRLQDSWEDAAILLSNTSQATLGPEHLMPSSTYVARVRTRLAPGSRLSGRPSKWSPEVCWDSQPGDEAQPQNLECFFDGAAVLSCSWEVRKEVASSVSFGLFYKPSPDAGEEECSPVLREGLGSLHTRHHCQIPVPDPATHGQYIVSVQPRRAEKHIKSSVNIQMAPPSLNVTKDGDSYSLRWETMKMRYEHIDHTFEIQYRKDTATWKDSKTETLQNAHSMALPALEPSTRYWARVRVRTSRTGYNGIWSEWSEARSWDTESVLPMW

GM-CSF (from UniProt P04141)
Kd (GM-CSFR (Homo sapiens)): 0.1 nM

G-CSF (from UniProt P09919)
Kd (G-CSFR (Homo sapiens)): 0.5 nM
